Test system: Escherichia coli TOP10
Assay: shrunken log2 fold change of peptide-encoding DNA abundance (4.5 h post-induction vs induction); higher = less antimicrobial activity (less host growth inhibition)
Conditions: time post-induction: 4.5 h; library: site-saturation at positions 5, 18, 19, 20
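Further: peptides expressed intracellularly from a pBAD plasmid library in pooled LB shake-flask culture, induced with 0.3% L-arabinose, DNA abundance read by NGS, three biological replicates, DESeq2 with apeglm shrinkage.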

RRIRERPPRLPRPRPRPMIEPRP was tested, and the “shrunken log2 fold change” value was -0.184.

For RRIRDRPPRLPRPRPRPYNFPRP, the “shrunken log2 fold change” value was -0.0811.

RRIRIRPPRLPRPRPRPSWEPRP was tested, and the “shrunken log2 fold change” value was -0.621.

With RRIRVRPPRLPRPRPRPAVWPRP the “shrunken log2 fold change” value was 0.458.

For RRIRDRPPRLPRPRPRPSKSPRP, the “shrunken log2 fold change” value was -0.223.

In the case of RRIRNRPPRLPRPRPRPPMNPRP, the “shrunken log2 fold change” value is reported as -0.0606.

In the case of RRIRHRPPRLPRPRPRPEAQPRP, the “shrunken log2 fold change” value is reported as -0.00183.

With RRIRLRPPRLPRPRPRPPFYPRP the “shrunken log2 fold change” value was -0.185.

For RRIRKRPPRLPRPRPRPTKIPRP, the “shrunken log2 fold change” value was 0.269.

RRIRQRPPRLPRPRPRPAFTPRP was tested, and the “shrunken log2 fold change” value was -0.00944.

In the case of RRIRFRPPRLPRPRPRPINDPRP, the “shrunken log2 fold change” value is reported as -0.241.

With RRIRVRPPRLPRPRPRPCSDPRP the “shrunken log2 fold change” value was -0.0601.

In the case of RRIRKRPPRLPRPRPRPDWHPRP, the “shrunken log2 fold change” value is reported as 0.0739.

RRIRQRPPRLPRPRPRPMKSPRP was tested, and the “shrunken log2 fold change” value was 0.0232.

With RRIRMRPPRLPRPRPRPKGFPRP the “shrunken log2 fold change” value was 0.00502.

For RRIRMRPPRLPRPRPRPHTMPRP, the “shrunken log2 fold change” value was 0.124.

RRIRIRPPRLPRPRPRPKSHPRP was tested, and the “shrunken log2 fold change” value was -0.451.

RRIRPRPPRLPRPRPRPVETPRP was tested, and the “shrunken log2 fold change” value was -0.158.

RRIRLRPPRLPRPRPRPQFTPRP was tested, and the “shrunken log2 fold change” value was -0.324.

RRIRFRPPRLPRPRPRPKHDPRP was tested, and the “shrunken log2 fold change” value was -0.168.

For RRIRQRPPRLPRPRPRPKAIPRP, the “shrunken log2 fold change” value was 0.0432.

In the case of RRIRMRPPRLPRPRPRPNDCPRP, the “shrunken log2 fold change” value is reported as -0.00865.

RRIRVRPPRLPRPRPRPLQIPRP was tested, and the “shrunken log2 fold change” value was -0.0888.

RRIRLRPPRLPRPRPRPNFNPRP was tested, and the “shrunken log2 fold change” value was 0.597.

For RRIRTRPPRLPRPRPRPTVNPRP, the “shrunken log2 fold change” value was -0.217.

With RRIRPRPPRLPRPRPRPEPRPRP the “shrunken log2 fold change” value was 1.05.

In the case of RRIRYRPPRLPRPRPRPAPRPRP, the “shrunken log2 fold change” value is reported as 0.57.

In the case of RRIRDRPPRLPRPRPRPPGVPRP, the “shrunken log2 fold change” value is reported as 0.127.

For RRIRWRPPRLPRPRPRPNVTPRP, the “shrunken log2 fold change” value was -0.22.

For RRIRHRPPRLPRPRPRPLRWPRP, the “shrunken log2 fold change” value was 0.3.

With RRIRCRPPRLPRPRPRPGACPRP the “shrunken log2 fold change” value was 0.257.

RRIRDRPPRLPRPRPRPDCVPRP was tested, and the “shrunken log2 fold change” value was 0.381.

With RRIRFRPPRLPRPRPRPGVYPRP the “shrunken log2 fold change” value was -0.0669.

For RRIRGRPPRLPRPRPRPSCVPRP, the “shrunken log2 fold change” value was 0.499.

For RRIRIRPPRLPRPRPRPDGHPRP, the “shrunken log2 fold change” value was -0.153.

For RRIRMRPPRLPRPRPRPWHGPRP, the “shrunken log2 fold change” value was -0.0653.

In the case of RRIRWRPPRLPRPRPRPQFLPRP, the “shrunken log2 fold change” value is reported as -0.0223.

With RRIRDRPPRLPRPRPRPYMYPRP the “shrunken log2 fold change” value was -0.194.

With RRIRNRPPRLPRPRPRPQYNPRP the “shrunken log2 fold change” value was -0.674.

In the case of RRIRERPPRLPRPRPRPKNSPRP, the “shrunken log2 fold change” value is reported as -0.52.

For RRIRSRPPRLPRPRPRPPKPPRP, the “shrunken log2 fold change” value was 0.149.

RRIRSRPPRLPRPRPRPIYNPRP was tested, and the “shrunken log2 fold change” value was -0.785.

For RRIRDRPPRLPRPRPRPNWYPRP, the “shrunken log2 fold change” value was -0.476.

In the case of RRIRNRPPRLPRPRPRPPGQPRP, the “shrunken log2 fold change” value is reported as 0.0465.

RRIRFRPPRLPRPRPRPGFAPRP was tested, and the “shrunken log2 fold change” value was 0.374.

RRIRIRPPRLPRPRPRPLAYPRP was tested, and the “shrunken log2 fold change” value was -0.132.

In the case of RRIRERPPRLPRPRPRPCCNPRP, the “shrunken log2 fold change” value is reported as -0.0562.

With RRIRGRPPRLPRPRPRPTVMPRP the “shrunken log2 fold change” value was 0.074.

With RRIRMRPPRLPRPRPRPYPVPRP the “shrunken log2 fold change” value was -0.237.

For RRIRFRPPRLPRPRPRPVYAPRP, the “shrunken log2 fold change” value was -0.444.

With RRIRGRPPRLPRPRPRPMGYPRP the “shrunken log2 fold change” value was 0.111.

With RRIRTRPPRLPRPRPRPLIMPRP the “shrunken log2 fold change” value was -0.718.

RRIRTRPPRLPRPRPRPSVPPRP was tested, and the “shrunken log2 fold change” value was -0.0459.

In the case of RRIRWRPPRLPRPRPRPILFPRP, the “shrunken log2 fold change” value is reported as -0.456.

In the case of RRIRPRPPRLPRPRPRPLMAPRP, the “shrunken log2 fold change” value is reported as 0.213.

In the case of RRIRWRPPRLPRPRPRPVPEPRP, the “shrunken log2 fold change” value is reported as 0.634.

For RRIRMRPPRLPRPRPRPHVKPRP, the “shrunken log2 fold change” value was -0.282.

In the case of RRIRWRPPRLPRPRPRPVMGPRP, the “shrunken log2 fold change” value is reported as 0.37.

RRIRKRPPRLPRPRPRPNICPRP was tested, and the “shrunken log2 fold change” value was -0.0826.

With RRIRLRPPRLPRPRPRPCDCPRP the “shrunken log2 fold change” value was -0.0629.

With RRIRLRPPRLPRPRPRPTCEPRP the “shrunken log2 fold change” value was 0.497.

In the case of RRIRNRPPRLPRPRPRPLLQPRP, the “shrunken log2 fold change” value is reported as -0.137.

RRIRYRPPRLPRPRPRPVGFPRP was tested, and the “shrunken log2 fold change” value was -0.308.

For RRIRQRPPRLPRPRPRPFFVPRP, the “shrunken log2 fold change” value was -0.0254.

With RRIRPRPPRLPRPRPRPQSEPRP the “shrunken log2 fold change” value was -0.381.

In the case of RRIRERPPRLPRPRPRPHMQPRP, the “shrunken log2 fold change” value is reported as -0.551.

RRIRFRPPRLPRPRPRPSLMPRP was tested, and the “shrunken log2 fold change” value was -0.6.

In the case of RRIRNRPPRLPRPRPRPKEHPRP, the “shrunken log2 fold change” value is reported as -0.0991.

With RRIRDRPPRLPRPRPRPIRLPRP the “shrunken log2 fold change” value was 0.015.

For RRIRNRPPRLPRPRPRPVVIPRP, the “shrunken log2 fold change” value was -0.077.

With RRIRERPPRLPRPRPRPLPWPRP the “shrunken log2 fold change” value was 0.0953.

With RRIRHRPPRLPRPRPRPIIAPRP the “shrunken log2 fold change” value was -0.272.

With RRIRSRPPRLPRPRPRPHKNPRP the “shrunken log2 fold change” value was -0.283.

For RRIRRRPPRLPRPRPRPQRHPRP, the “shrunken log2 fold change” value was -0.0855.

In the case of RRIRMRPPRLPRPRPRPSYLPRP, the “shrunken log2 fold change” value is reported as -0.336.

In the case of RRIRDRPPRLPRPRPRPRTPPRP, the “shrunken log2 fold change” value is reported as 0.17.

RRIRRRPPRLPRPRPRPCKSPRP was tested, and the “shrunken log2 fold change” value was 0.263.

RRIRNRPPRLPRPRPRPPDWPRP was tested, and the “shrunken log2 fold change” value was 0.641.

With RRIRDRPPRLPRPRPRPPTFPRP the “shrunken log2 fold change” value was -0.158.

With RRIRWRPPRLPRPRPRPRFWPRP the “shrunken log2 fold change” value was 0.455.

With RRIRQRPPRLPRPRPRPVWDPRP the “shrunken log2 fold change” value was -0.104.

In the case of RRIRARPPRLPRPRPRPEKCPRP, the “shrunken log2 fold change” value is reported as -0.15.

With RRIRCRPPRLPRPRPRPWVDPRP the “shrunken log2 fold change” value was -0.00886.

RRIRKRPPRLPRPRPRPAEMPRP was tested, and the “shrunken log2 fold change” value was -0.00753.

With RRIRKRPPRLPRPRPRPPEIPRP the “shrunken log2 fold change” value was 0.131.

In the case of RRIRDRPPRLPRPRPRPQCPPRP, the “shrunken log2 fold change” value is reported as -0.00693.

RRIRKRPPRLPRPRPRPVFAPRP was tested, and the “shrunken log2 fold change” value was 2.02.

For RRIRCRPPRLPRPRPRPWYNPRP, the “shrunken log2 fold change” value was -1.45.

For RRIRCRPPRLPRPRPRPQYVPRP, the “shrunken log2 fold change” value was -0.345.

RRIRTRPPRLPRPRPRPWVVPRP was tested, and the “shrunken log2 fold change” value was -0.0414.

With RRIRNRPPRLPRPRPRPHAFPRP the “shrunken log2 fold change” value was -0.0636.

In the case of RRIRNRPPRLPRPRPRPLFWPRP, the “shrunken log2 fold change” value is reported as 0.0854.

With RRIRPRPPRLPRPRPRPDPCPRP the “shrunken log2 fold change” value was -0.0908.

RRIRIRPPRLPRPRPRPEECPRP was tested, and the “shrunken log2 fold change” value was 0.0287.

RRIRWRPPRLPRPRPRPKDRPRP was tested, and the “shrunken log2 fold change” value was 0.159.

With RRIRPRPPRLPRPRPRPLYEPRP the “shrunken log2 fold change” value was -0.303.

With RRIRYRPPRLPRPRPRPYFYPRP the “shrunken log2 fold change” value was -0.49.

For RRIRMRPPRLPRPRPRPWEFPRP, the “shrunken log2 fold change” value was 0.0443.

With RRIRDRPPRLPRPRPRPSHQPRP the “shrunken log2 fold change” value was -0.211.

For RRIRYRPPRLPRPRPRPQDHPRP, the “shrunken log2 fold change” value was 0.0457.

In the case of RRIRQRPPRLPRPRPRPMVLPRP, the “shrunken log2 fold change” value is reported as 0.0309.

For RRIRYRPPRLPRPRPRPWCKPRP, the “shrunken log2 fold change” value was -0.00141.

With RRIRNRPPRLPRPRPRPCDTPRP the “shrunken log2 fold change” value was -0.0137.

In the case of RRIRYRPPRLPRPRPRPYPIPRP, the “shrunken log2 fold change” value is reported as -0.376.

For RRIRTRPPRLPRPRPRPELTPRP, the “shrunken log2 fold change” value was 0.0104.

With RRIRDRPPRLPRPRPRPLMLPRP the “shrunken log2 fold change” value was 0.116.

RRIRARPPRLPRPRPRPPFLPRP was tested, and the “shrunken log2 fold change” value was 0.529.

For RRIRNRPPRLPRPRPRPPIDPRP, the “shrunken log2 fold change” value was -0.306.

With RRIRYRPPRLPRPRPRPCICPRP the “shrunken log2 fold change” value was -0.0423.

For RRIRLRPPRLPRPRPRPPFDPRP, the “shrunken log2 fold change” value was 0.312.

With RRIRWRPPRLPRPRPRPVSHPRP the “shrunken log2 fold change” value was -0.0115.

RRIRRRPPRLPRPRPRPEECPRP was tested, and the “shrunken log2 fold change” value was 0.00164.

With RRIRRRPPRLPRPRPRPMFGPRP the “shrunken log2 fold change” value was -0.0512.

With RRIRPRPPRLPRPRPRPVSIPRP the “shrunken log2 fold change” value was -0.271.

In the case of RRIRPRPPRLPRPRPRPGDAPRP, the “shrunken log2 fold change” value is reported as 0.398.

RRIRGRPPRLPRPRPRPASCPRP was tested, and the “shrunken log2 fold change” value was 1.06.

RRIRERPPRLPRPRPRPIETPRP was tested, and the “shrunken log2 fold change” value was -0.00369.

RRIRNRPPRLPRPRPRPAGNPRP was tested, and the “shrunken log2 fold change” value was 0.0404.

RRIRKRPPRLPRPRPRPLNMPRP was tested, and the “shrunken log2 fold change” value was 0.0134.

For RRIRCRPPRLPRPRPRPGRYPRP, the “shrunken log2 fold change” value was 0.0533.

For RRIRQRPPRLPRPRPRPGCRPRP, the “shrunken log2 fold change” value was 0.342.

For RRIRCRPPRLPRPRPRPNVQPRP, the “shrunken log2 fold change” value was -0.0319.

With RRIRCRPPRLPRPRPRPRIMPRP the “shrunken log2 fold change” value was -0.293.

In the case of RRIRSRPPRLPRPRPRPPYKPRP, the “shrunken log2 fold change” value is reported as -0.465.

With RRIRMRPPRLPRPRPRPCVRPRP the “shrunken log2 fold change” value was 0.0764.
